Test system: fusion protein comprising the c-myc tag, a generic substrate recognized by the serine/threonine kinases and the FLAG tag, expressed from the pSEMS plasmid (Snaptag)

Substance	phosphorylation of the substrate measured by TR-FRET after activation by ionomycin	phosphorylation of the substrate measured by TR-FRET (delta F)
Cam kinase II (expressed from CamKII delta-pcDNA 3.1)	in the presence of ionomycin, the signal measured is much greater than in its absence	
kinase Akt1 (expressed from Akt1-pcDNA 3.1)		The co-transfection with the plasmid coding for the protein substrate and the plasmid coding for the kinase Akt1 makes it possible to increase the quantity of protein substrate phosphorylated specifically by Akt1
